{"source": "paper doi:10.1101/2020.12.29.424682", "target": "SARS-CoV-2 Spike protein S1 (SARS-CoV-2) (UniProt P0DTC2)", "assay": "BLI", "data": [{"substance": "peptide … (sequence 24-42 of the ACE2 α1 domain)", "values": [{"measurement": "IC50", "value": 700, "unit": "nM"}, {"measurement": "peptide concentration of half effect on koff of the S1-ACE2 complex", "value": 0.6, "unit": "µM"}]}]}
